Results from publication PMC8634136 (The EMBO Journal, 2021).

T1: AND‐1 (human, UniProt O75717 1-1129)
T1 construct: AND-1, human; Only the trimer of SepB domains is ordered in the map; source: Hi5 insect cells (baculovirus), purified (Flag M2, MonoQ, Superdex 200)
T1 sequence: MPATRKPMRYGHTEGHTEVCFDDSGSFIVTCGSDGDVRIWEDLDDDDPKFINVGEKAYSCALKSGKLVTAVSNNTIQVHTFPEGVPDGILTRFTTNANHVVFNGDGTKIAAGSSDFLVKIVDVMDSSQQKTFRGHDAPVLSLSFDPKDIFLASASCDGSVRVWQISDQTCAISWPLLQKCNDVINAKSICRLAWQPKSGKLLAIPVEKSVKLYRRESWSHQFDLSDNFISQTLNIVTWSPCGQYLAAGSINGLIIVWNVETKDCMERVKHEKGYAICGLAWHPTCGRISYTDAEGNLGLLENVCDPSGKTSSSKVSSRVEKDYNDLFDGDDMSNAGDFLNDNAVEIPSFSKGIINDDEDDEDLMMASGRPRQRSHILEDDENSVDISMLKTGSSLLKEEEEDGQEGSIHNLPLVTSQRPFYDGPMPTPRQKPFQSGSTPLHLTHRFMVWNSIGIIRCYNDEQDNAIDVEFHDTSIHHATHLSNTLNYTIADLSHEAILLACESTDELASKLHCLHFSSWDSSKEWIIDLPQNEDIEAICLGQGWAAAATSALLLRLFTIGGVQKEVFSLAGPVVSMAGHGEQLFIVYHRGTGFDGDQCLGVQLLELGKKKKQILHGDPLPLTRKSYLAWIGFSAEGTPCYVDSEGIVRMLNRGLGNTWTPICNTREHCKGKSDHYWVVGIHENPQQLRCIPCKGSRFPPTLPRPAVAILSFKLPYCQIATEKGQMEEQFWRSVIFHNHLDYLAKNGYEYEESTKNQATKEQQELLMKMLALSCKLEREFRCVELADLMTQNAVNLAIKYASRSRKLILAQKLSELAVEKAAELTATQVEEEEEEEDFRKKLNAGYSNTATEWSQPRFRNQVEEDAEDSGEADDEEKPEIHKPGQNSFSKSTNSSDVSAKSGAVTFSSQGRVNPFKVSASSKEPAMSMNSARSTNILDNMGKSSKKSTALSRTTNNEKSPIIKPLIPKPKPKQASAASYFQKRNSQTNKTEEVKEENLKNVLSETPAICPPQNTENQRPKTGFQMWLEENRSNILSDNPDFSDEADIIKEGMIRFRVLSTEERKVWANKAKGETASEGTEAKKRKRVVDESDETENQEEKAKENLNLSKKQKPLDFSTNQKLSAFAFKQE

B1: CDC45 (natural protein, human, UniProt O75419 1-566, looked up)
chain: MFVSDFRKEFYEVVQSQRVLLFVASDVDALCACKILQALFQCDHVQYTLVPVSGWQELETAFLEHKEQFHYFILINCGANVDLLDILQPDEDTIFFVCDTHRPVNVVNVYNDTQIKLLIKQDDDLEVPAYEDIFRDEEEDEEHSGNDSDGSEPSEKRTRLEEEIVEQTMRRRQRREWEARRRDILFDYEQYEYHGTSSAMVMFELAWMLSKDLNDMLWWAIVGLTDQWVQDKITQMKYVTDVGVLQRHVSRHNHRNEDEENTLSVDCTRISFEYDLRLVLYQHWSLHDSLCNTSYTAARFKLWSVHGQKRLQEFLADMGLPLKQVKQKFQAMDISLKENLREMIEESANKFGMKDMRVQTFSIHFGFKHKFLASDVVFATMSLMESPEKDGSGTDHFIQALDSLSRSNLDKLYHGLELAKKQLRATQQTIASCLCTNLVISQGPFLYCSLMEGTPDVMLFSRPASLSLLSKHLLKSFVCSTKNRRCKLLPLVMAAPLSMEHGTVTVVGIPPETDSSDRKNFFGRAFEKAAESTSSRMLHNHFDLSVIELKAEDRSKFLDALISLLS
notes: CDC45, human; Stood in the structure as a subunit of m1; source: Hi5 insect cells, purified as a subunit of hsCMG
B2: MCM5 (natural protein, human)
chain: MSGFDDPGIFYSDSFGGDAQADEGQARKSQLQRRFKEFLRQYRVGTDRTGFTFKYRDELKRHYNLGEYWIEVEMEDLASFDEDLADYLYKQPAEHLQLLEEAAKEVADEVTRPRPSGEEVLQDIQVMLKSDASPSSIRSLKSDMMSHLVKIPGIIIAASAVRAKATRISIQCRSCRNTLTNIAMRPGLEGYALPRKCNTDQAGRPKCPLDPYFIMPDKCKCVDFQTLKLQELPDAVPHGEMPRHMQLYCDRYLCDKVVPGNRVTIMGIYSIKKFGLTTSRGRDRVGVGIRSSYIRVLGIQVDTDGSGRSFAGAVSPQEEEEFRRLAALPNVYEVISKSIAPSIFGGTDMKKAIACLLFGGSRKRLPDGLTRRGDINLLMLGDPGTAKSQLLKFVEKCSPIGVYTSGKGSSAAGLTASVMRDPSSRNFIMEGGAMVLADGGVVCIDEFDKMREDDRVAIHEAMEQQTISIAKAGITTTLNSRCSVLAAANSVFGRWDETKGEDNIDFMPTILSRFDMIFIVKDEHNEERDVMLAKHVITLHVSALTQTQAVEGEIDLAKLKKFIAYCRVKCGPRLSAEAAEKLKNRYIIMRSGARQHERDSDRRSSIPITVRQLEAIVRIAEALSKMKLQPFATEADVEEALRLFQVSTLDAALSGTLSGVEGFTSQEDQEMLSRIEKQLKRRFAIGSQVSEHSIIKDFTKQKYPEHAIHKVLQLMLRRGEIQHRMQRKVLYRLK
notes: MCM5, human; Stood in the structure as a subunit of m1; source: Hi5 insect cells, purified as a subunit of hsCMG
B3: PSF2 (natural protein, human)
chain: MDAAEVEFLAEKELVTIIPNFSLDKIYLIGGDLGPFNPGLPVEVPLWLAINLKQRQKCRLLPPEWMDVEKLEKMRDHERKEETFTPMPSPYYMELTKLLLNHASDNIPKADEIRTLVKDMWDTRIAKLRVSADSFVRQQEAHAKLDNLTLMEINTSGTFLTQALNHMYKLRTNLQPLESTQSQDF
notes: PSF2 (GINS subunit), human; Stood in the structure as a subunit of m1; also called PSF2 subunit of GINS; source: Hi5 insect cells, purified as a subunit of hsCMG
B4: TIMELESS (natural protein, human)
chain: MDLHMMNCELLATCSALGYLEGDTYHKEPDCLESVKDLIRYLRHEDETRDVRQQLGAAQILQSDLLPILTQHHQDKPLFDAVIRLMVNLTQPALLCFGNLPKEPSFRHHFLQVLTYLQAYKEAFASEKAFGVLSETLYELLQLGWEERQEEDNLLIERILLLVRNILHVPADLDQEKKIDDDASAHDQLLWAIHLSGLDDLLLFLASSSAEEQWSLHVLEIVSLMFRDQNPEQLAGVGQGRLAQERSADFAELEVLRQREMAEKKTRALQRGNRHSRFGGSYIVQGLKSIGERDLIFHKGLHNLRNYSSDLGKQPKKVPKRRQAARELSIQRRSALNVRLFLRDFCSEFLENCYNRLMGSVKDHLLREKAQQHDETYYMWALAFFMAFNRAASFRPGLVSETLSVRTFHFIEQNLTNYYEMMLTDRKEAASWARRMHLALKAYQELLATVNEMDISPDEAVRESSRIIKNNIFYVMEYRELFLALFRKFDERCQPRSFLRDLVETTHLFLKMLERFCRSRGNLVVQNKQKKRRKKKKKVLDQAIVSGNVPSSPEEVEAVWPALAEQLQCCAQNSELSMDSVVPFDAASEVPVEEQRAEAMVRIQDCLLAGQAPQALTLLRSAREVWPEGDVFGSQDISPEEEIQLLKQILSAPLPRQQGPEERGAEEEEEEEEEEEEELQVVQVSEKEFNFLDYLKRFACSTVVRAYVLLLRSYQQNSAHTNHCIVKMLHRLAHDLKMEALLFQLSVFCLFNRLLSDPAAGAYKELVTFAKYILGKFFALAAVNQKAFVELLFWKNTAVVREMTEGYGSLDDRSSSRRAPTWSPEEEAHLRELYLANKDVEGQDVVEAILAHLNTVPRTRKQIIHHLVQMGLADSVKDFQRKGTHIVLWTGDQELELQRLFEEFRDSDDVLGHIMKNITAKRSRARIVDKLLALGLVAERRELYKKRQKKLASSILPNGAESLKDFCQEDLEEEENLPEEDSEEEEEGGSEAEQVQGSLVLSNENLGQSLHQEGFSIPLLWLQNCLIRAADDREEDGCSQAVPLVPLTEENEEAMENEQFQQLLRKLGVRPPASGQETFWRIPAKLSPTQLRRAAASLSQPEEEQKLQPELQPKVPGEQGSDEEHCKEHRAQALRALLLAHKKKAGLASPEEEDAVGKEPLKAAPKKRQLLDSDEEQEEDEGRNRAPELGAPGIQKKKRYQIEDDEDD
notes: Stood in the structure as a subunit of m3; residues 7-803 modelled (527-684 not visualised)

Experiments:
Test in all cases: cryo-EM structure; replisome reconstituted on fork DNA with AMP-PNP, isolated on a glycerol gradient with glutaraldehyde and BS3; 3.2 Å overall; a sample without CLASPIN solved at 3.4 Å
Details in all cases: both partners purified
[1] = target: T1, AND‐1
[2] = target: T2, POLE1 (human, UniProt Q07864 1-2286)
T2 construct: POLE1, catalytic subunit of Pol ε, human; Stood in the structure as a subunit of m2; residues 1,371-2,280 modelled; also called POLE1 catalytic subunit; POLE1^nonCat (the modelled C-terminal non-catalytic domain); source: Hi5 insect cells, purified as a subunit of Pol ε

[3] = target: T3, CLASPIN (human, UniProt Q9HAW4 1-1339)
T3 construct: CLASPIN, human; Only residues 284-319, 525-540 and 592-618 are modelled in the structure; source: Hi5 insect cells (baculovirus), purified (Flag M2, Superose 6)
T3 sequence (Q9HAW4 whole entry, the tested form may be a part): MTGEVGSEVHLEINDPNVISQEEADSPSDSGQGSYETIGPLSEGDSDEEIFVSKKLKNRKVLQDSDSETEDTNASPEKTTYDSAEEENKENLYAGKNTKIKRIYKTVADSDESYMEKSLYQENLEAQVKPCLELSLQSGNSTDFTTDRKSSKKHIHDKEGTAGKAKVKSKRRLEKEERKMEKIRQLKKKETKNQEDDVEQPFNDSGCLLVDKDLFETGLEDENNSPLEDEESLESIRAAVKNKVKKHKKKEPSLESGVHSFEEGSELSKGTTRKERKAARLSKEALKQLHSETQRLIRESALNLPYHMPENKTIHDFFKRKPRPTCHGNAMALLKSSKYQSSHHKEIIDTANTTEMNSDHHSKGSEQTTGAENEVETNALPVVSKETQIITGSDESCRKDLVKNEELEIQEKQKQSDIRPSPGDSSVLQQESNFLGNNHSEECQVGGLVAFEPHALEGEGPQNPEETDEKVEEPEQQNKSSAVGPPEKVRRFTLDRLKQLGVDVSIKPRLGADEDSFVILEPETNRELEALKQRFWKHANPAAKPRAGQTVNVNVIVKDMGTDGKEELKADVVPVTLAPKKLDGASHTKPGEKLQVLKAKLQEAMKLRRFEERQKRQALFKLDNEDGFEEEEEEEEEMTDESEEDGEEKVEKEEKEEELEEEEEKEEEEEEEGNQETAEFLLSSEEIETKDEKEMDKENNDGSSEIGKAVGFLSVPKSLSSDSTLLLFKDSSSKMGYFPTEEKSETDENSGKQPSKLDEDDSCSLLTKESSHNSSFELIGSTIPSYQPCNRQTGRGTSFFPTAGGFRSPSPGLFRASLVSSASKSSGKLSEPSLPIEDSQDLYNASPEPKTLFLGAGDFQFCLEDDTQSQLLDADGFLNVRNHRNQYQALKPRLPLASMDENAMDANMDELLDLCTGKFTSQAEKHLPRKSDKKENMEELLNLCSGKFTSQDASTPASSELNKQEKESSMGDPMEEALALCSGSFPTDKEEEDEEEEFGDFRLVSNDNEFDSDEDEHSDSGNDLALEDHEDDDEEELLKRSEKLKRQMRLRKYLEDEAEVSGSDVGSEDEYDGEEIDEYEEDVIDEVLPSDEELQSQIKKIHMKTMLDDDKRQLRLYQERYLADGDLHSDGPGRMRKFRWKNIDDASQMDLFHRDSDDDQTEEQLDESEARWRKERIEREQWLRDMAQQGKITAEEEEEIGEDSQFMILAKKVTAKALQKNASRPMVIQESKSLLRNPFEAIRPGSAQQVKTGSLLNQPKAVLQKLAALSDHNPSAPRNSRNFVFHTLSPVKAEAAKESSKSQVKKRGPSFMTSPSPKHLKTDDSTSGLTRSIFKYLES

T2 sequence (Q07864 whole entry, the tested form may be a part): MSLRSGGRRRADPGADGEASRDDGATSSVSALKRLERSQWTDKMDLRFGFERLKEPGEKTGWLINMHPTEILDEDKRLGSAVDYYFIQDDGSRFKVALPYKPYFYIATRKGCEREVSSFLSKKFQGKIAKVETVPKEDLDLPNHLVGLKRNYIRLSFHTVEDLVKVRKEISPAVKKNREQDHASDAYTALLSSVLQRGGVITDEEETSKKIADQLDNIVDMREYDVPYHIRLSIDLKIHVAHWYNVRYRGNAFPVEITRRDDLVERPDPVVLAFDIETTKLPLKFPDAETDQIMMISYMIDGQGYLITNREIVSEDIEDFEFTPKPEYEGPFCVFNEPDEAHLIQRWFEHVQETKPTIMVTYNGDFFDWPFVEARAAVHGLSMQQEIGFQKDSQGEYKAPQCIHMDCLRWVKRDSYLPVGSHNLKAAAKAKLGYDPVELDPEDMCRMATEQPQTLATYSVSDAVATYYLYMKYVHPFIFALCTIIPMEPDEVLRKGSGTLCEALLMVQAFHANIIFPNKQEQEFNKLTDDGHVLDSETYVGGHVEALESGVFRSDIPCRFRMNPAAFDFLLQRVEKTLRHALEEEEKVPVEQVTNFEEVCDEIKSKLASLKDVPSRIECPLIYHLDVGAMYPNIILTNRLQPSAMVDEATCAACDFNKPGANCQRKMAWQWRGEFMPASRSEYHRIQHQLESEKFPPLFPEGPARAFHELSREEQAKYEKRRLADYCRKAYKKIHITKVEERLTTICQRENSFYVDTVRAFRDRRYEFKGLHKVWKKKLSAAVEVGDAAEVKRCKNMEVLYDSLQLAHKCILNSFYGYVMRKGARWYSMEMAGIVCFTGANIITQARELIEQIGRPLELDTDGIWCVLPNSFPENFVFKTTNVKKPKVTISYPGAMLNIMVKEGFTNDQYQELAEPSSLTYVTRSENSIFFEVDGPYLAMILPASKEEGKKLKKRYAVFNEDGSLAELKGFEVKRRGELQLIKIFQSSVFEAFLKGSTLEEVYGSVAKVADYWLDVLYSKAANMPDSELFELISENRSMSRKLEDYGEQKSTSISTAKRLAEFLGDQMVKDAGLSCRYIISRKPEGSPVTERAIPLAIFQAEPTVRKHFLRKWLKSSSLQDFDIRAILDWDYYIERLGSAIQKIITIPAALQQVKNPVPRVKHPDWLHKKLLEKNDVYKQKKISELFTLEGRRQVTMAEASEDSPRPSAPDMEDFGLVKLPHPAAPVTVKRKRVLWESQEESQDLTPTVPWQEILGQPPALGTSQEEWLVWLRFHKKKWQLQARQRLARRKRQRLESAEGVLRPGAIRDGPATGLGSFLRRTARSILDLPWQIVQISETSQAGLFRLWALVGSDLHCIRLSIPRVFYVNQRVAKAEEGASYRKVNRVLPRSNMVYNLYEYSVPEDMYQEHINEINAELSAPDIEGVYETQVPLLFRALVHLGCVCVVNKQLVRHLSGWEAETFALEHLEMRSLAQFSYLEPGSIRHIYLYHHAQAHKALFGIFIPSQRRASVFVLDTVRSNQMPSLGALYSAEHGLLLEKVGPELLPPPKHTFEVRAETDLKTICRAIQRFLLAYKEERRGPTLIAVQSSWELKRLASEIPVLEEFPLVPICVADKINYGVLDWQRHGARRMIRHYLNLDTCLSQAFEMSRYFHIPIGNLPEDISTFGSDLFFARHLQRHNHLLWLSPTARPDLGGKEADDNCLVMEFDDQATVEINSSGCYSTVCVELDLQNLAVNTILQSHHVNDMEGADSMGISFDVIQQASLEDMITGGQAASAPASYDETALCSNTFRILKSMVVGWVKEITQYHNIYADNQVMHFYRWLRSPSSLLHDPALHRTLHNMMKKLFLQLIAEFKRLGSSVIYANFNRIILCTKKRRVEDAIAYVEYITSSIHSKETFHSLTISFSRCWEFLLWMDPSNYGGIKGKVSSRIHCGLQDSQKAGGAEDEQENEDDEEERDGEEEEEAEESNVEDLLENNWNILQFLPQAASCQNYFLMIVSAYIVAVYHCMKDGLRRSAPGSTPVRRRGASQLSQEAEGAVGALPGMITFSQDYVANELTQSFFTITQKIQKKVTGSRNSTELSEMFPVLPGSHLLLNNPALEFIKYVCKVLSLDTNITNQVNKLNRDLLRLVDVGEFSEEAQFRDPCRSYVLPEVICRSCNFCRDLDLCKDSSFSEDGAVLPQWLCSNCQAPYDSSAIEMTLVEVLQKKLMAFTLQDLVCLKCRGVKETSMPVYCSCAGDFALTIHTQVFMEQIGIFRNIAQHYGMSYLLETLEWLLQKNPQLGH

Binder | binding result [1] | binding result [2] | binding result [3]
B1 | binds | binds | 
B2 |  | binds | 
B3 | binds |  | 
B4 |  |  | binds
